From article PMC4467669, “Targeted inhibition of the Shroom3–Rho kinase protein–protein interaction circumvents Nogo66 to promote axon outgrowth” (BMC Neuroscience, 2015)
Residue numbers refer to the chain shown, from its start. Blank lines part the entries; values can stand above or below the molecule they belong to.

Columns and labels:
Shroom3 = target: T1, Shroom3 (Mus musculus, UniProt Q9QXN0); test: ELISA of purified SD2 / biotin-R2-C1 interaction; wash-out irreversibility, DTT block and Cys-to-Ala mutagenesis; format: binding
T1 construct: SD2 domain (aa 1,563–1,986)
T1 sequence (Q9QXN0 1563-1986): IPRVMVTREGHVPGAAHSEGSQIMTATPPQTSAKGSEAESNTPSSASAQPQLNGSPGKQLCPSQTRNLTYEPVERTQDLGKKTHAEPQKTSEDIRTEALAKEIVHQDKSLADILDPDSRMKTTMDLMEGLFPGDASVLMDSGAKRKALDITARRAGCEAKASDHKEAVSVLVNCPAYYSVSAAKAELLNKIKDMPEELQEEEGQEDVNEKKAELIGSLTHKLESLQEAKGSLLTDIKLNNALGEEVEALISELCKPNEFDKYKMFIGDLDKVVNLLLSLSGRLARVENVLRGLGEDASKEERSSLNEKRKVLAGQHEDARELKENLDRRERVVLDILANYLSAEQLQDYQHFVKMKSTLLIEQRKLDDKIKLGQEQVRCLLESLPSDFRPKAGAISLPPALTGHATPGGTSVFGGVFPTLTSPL
T1 sequence (P70336 698-957 partner): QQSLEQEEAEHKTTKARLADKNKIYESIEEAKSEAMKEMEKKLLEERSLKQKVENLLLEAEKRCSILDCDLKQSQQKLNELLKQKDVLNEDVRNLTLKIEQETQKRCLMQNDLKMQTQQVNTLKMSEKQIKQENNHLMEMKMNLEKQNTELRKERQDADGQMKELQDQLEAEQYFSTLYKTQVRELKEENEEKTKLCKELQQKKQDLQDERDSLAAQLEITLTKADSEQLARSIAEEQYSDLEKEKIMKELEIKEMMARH

[1] = target: T2, Shroom3 SD2 domain (aa 1,563–1,986), GST removed (mouse, UniProt Q9QXN0 1563-1986); test: ELISA; 0.5 µg SD2 immobilised on 96-well Immulon 2B high binding plates; Biotin-R2C1 0 to 1,778 nM (11 points) for 1 h at 25°C in TBS-1 (20 mM Tris HCl, 150 mM KCl, 0.5% Triton X-100, pH 7.9) with 0.5% BSA; NeutrAvidin-HRP; apparent Kd, hyperbolic fit; conditions: both partners purified
T2 construct: Shroom3 SD2 domain, mouse, aa 1,563-1,986; Expressed as GST-SD2 from pGST-SD2; also called WT SD2; SD2 wild type; source: E. coli, purified (glutathione agarose; GST removed with TEV protease)
T2 sequence (looked up): T1 sequence (Q9QXN0 1563-1986)

SD2 Cys254Ala (ELISA) = target: T3, SD2 Cys254Ala (ELISA) (mouse, UniProt Q9QXN0 1563-1986, Cys254Ala (SD2 numbering; Cys 1816 in full length mouse Shroom3)); test: ELISA; 150 ng SD2 (wild type or mutant) immobilised on 384-well high-binding plates; CCG-17444 dilutions 30 min at 25°C, then 10 ng biotin-R2C1 (1.5 ng in Figure 4) 1 h at 25°C; buffer A (20 mM Tris HCl, 150 mM KCl, 0.05% Triton X-100, 0.5% BSA, pH 7.9); NeutrAvidin-HRP; also with 1 mM DTT; conditions: both partners purified
T3 construct: Shroom3 SD2 domain, mouse, aa 1,563-1,986; also called Cys254Ala mutant
T3 sequence (looked up): T1 sequence (Q9QXN0 1563-1986) with C254A

SD2 Cys379Ala (ELISA) = target: T4, SD2 Cys379Ala (ELISA) (mouse, UniProt Q9QXN0 1563-1986, Cys379Ala (SD2 numbering; mouse Shroom3 Cys1941)); test: as above; conditions: both partners purified
T4 construct: Shroom3 SD2 domain, mouse, aa 1,563-1,986; SD2 Cys379 corresponds to mouse Shroom3 Cys1941 (AAF13269)
T4 sequence (looked up): T1 sequence (Q9QXN0 1563-1986) with C379A

[2] = target: T5, SD2 Cys254Ala Cys379Ala (ELISA) (mouse, UniProt Q9QXN0 1563-1986, Cys254Ala (SD2 numbering; Cys 1816 in full length mouse Shroom3) | Cys379Ala …); test: as above; conditions: both partners purified
T5 construct: Shroom3 SD2 domain, mouse, aa 1,563-1,986; also called double mutant SD2 Cys254Ala Cys379Ala; double Cys to Ala mutant
T5 sequence (looked up): T1 sequence (Q9QXN0 1563-1986) with C254A, C379A

[3] = target: T2, Shroom3 SD2 domain (aa 1,563–1,986), …; test: ELISA; competition: SD2 immobilised; 100 ng Biotin-R2C1 incubated 1 h at 25°C with unlabeled R2C1 (1–10 µg); NeutrAvidin-HRP; conditions: both partners purified
[4] = target: T6, GST-SD2 wild type (mouse Shroom3 aa 1,563–1,986) (mouse, UniProt Q9QXN0 1563-1986); test: pull-down; wild type or mutant GST-SD2 (5 μg) bound to glutathione agarose resin, incubated overnight with His-Sumo-R2-C1 (12.5 μg); washed 3× Triton IP buffer, 1× PBS; SDS-PAGE, Coomassie G-250; conditions: both partners purified
T6 construct: Shroom3 SD2 domain, mouse, aa 1,563-1,986; also called wild type GST-SD2; WT SD2
T6 sequence (looked up): T1 sequence (Q9QXN0 1563-1986)

[5] = target: T7, GST-SD2 Cys254Ala (mouse Shroom3 aa 1,563–1,986, Cys1816Ala) (mouse, UniProt Q9QXN0 1563-1986, Cys254Ala (SD2 numbering; Cys 1816 in full length mouse Shroom3)); test: as above; conditions: both partners purified
T7 construct: Shroom3 SD2 domain, mouse, aa 1,563-1,986; Probably made in E. coli like the wild type; also called mutant GST-SD2; Cys254Ala SD2
T7 sequence (looked up): T1 sequence (Q9QXN0 1563-1986) with C254A

Molecule: CC1(C)CC(=O)C2=C(C1)Nc1[nH]c(=S)[nH]c(=O)c1C2c1cccs1 (centres unmarked) [CCG-17444]
IC50 (Shroom3): 12.4 ± 2.3 µM

Kd [1]: 4.9 nM | binding result (SD2 Cys254Ala (ELISA)): binds | binding result (SD2 Cys379Ala (ELISA)): binds | binding result [2]: binds
B1: Biotinylated HisSUMO-R2C1 (mouse ROCK II aa 698–957) (domain or fragment, UniProt P70336 698-957, looked up)
chain: T1 sequence (P70336 698-957 partner)
modifications: biotin (NHS-PEO4-biotin; on average four biotin molecules per 1 mol of protein)
notes: No removal of the His-SUMO tag is described; also called Biotin-R2C1; biotinylated R2-C1; source: E. coli, purified (HisPur Ni-NTA), biotinylated with NHS-PEO4-biotin

binding result [3]: binds | binding result [4]: binds | binding result [5]: binds
B2: HisSUMO-R2C1 (mouse ROCK II aa 698–957), unlabeled (domain or fragment, UniProt P70336 698-957, looked up)
chain: T1 sequence (P70336 698-957 partner)
notes: also called Unlabeled R2-C1; unlabeled R2C1; source: E. coli, purified (HisPur Ni-NTA)
